In patent publication US20230129258A1, “HETEROTANDEM BICYCLIC PEPTIDE COMPLEXES” (BicycleTx Limited, priority 2019, published 2023):
Starred links: 1 amine or outer side, 2 acyl side, 3 side chain; linkers in the order of their positions; H or OH if unused. Positions of bridges follow the written chain, without caps; N, C: chain ends. Non-standard residues stand in square brackets, D forms with d. Chains are numbered I, II in the order given. No end group written: not given here. *: point of attachment. TATA = O=C(CC[*:1])N1CN(C(=O)CC[*:2])CN(C(=O)CC[*:3])C1; Hyp = O=C(O)[C@@H]1C[C@@H](O)CN1; hArg = N=C(N)NCCCC[C@H](N)C(=O)O; tBuAla = CC(C)(C)C[C@H](N)C(=O)O; dK(PYA) = not defined here; Nle = CCCC[C@H](N)C(=O)O; Pent4ynoyl = C#CCCC(=O)*

B1: BCY14052 (peptide)
peptide 1: AXDCXLVNPLCLFPDWXC
peptide 2: CXPEXPYCFADPYXCA
modifications: BCY8928: Ac-(SEQ ID NO: 11)-A; TATA; linker at dLys(PYA)4; BCY13920: A[HArg]D-(SEQ ID NO: 159); TATA; linker at N-terminus
B2: heterotandem bicyclic peptide complex BCY12491 (peptide)
peptide 1: A[hArg]DC[Hyp]LVNPLCLHP[dD]W[hArg]C
peptide 2: Ac-C[tBuAla]PE[dK](Pent4ynoyl)PYCFADPY[Nle]CA
modifications: linker I:4-I:11-I:18, II:1-II:8-II:15 via TATA (inferred); also: N-(acid-PEG3)-N-bis(PEG3-azide) linker at chain 1 N-terminus, joined to dLys(PYA)4 of two BCY8928 chains (1:2 complex)
B3: BCY14051 (peptide)
peptide 1: AXDCXLVNPLCLXPDWXC
peptide 2: CXPEXPYCFADPYXCA
modifications: BCY8928: Ac-(SEQ ID NO: 11)-A; TATA; linker at dLys(PYA)4; BCY13919: A[HArg]D-(SEQ ID NO: 158); TATA; linker at N-terminus
B4: BCY12725 (peptide)
peptide 1: A[hArg]DC[Hyp]LVNPLCLHP[dD]W[hArg]C
peptide 2: Ac-C[tBuAla]PE[dK(PYA)]PYCFANPY[Nle]C
modifications: linker I:4-I:11-I:18, II:1-II:8-II:15 via TATA; not fully specified (bridges); reading uncertain; also: two CD137 bicycles per complex (EphA2:CD137 1:2)
B5: BCY12723 (peptide)
peptide 1: A[hArg]DC[Hyp]LVNPLCLHP[dD]W[hArg]C
peptide 2: Ac-C[tBuAla]EE[dK(PYA)]PYCFADPY[Nle]C
modifications: linker I:4-I:11-I:18, II:1-II:8-II:15 via TATA; not fully specified (bridges); reading uncertain; also: two CD137 bicycles per complex (EphA2:CD137 1:2)
B6: BCY14050 (peptide)
peptide 1: AXDCXLVNPLCLXPDWXC
peptide 2: CXPEXPYCFADPYXCA
modifications: BCY8928: Ac-(SEQ ID NO: 11)-A; TATA; linker at dLys(PYA)4; BCY13918: A[HArg]D-(SEQ ID NO: 157); TATA; linker at N-terminus
B7: BCY12724 (peptide)
peptide 1: A[hArg]DC[Hyp]LVNPLCLHP[dD]W[hArg]C
peptide 2: Ac-C[tBuAla]PE[dK(PYA)]PYCFADPY[Nle]C
modifications: linker I:4-I:11-I:18, II:1-II:8-II:15 via TATA; not fully specified (bridges); reading uncertain; also: two CD137 bicycles per complex (EphA2:CD137 1:2)
B8: BCY13279 (peptide)
peptide 1: Ac-C[Hyp]LVNPLCLHP[dD]W[hArg]CL[dH]G[dK]
peptide 2: Ac-C[tBuAla]PE[dK](Pent4ynoyl)PYCFADPY[Nle]CA
modifications: linker I:1-I:8-I:15, II:1-II:8-II:15 via TATA (inferred); also: linker N-(acid-PEG3)-N-bis(PEG3-azide) on C-terminal dK of chain 1, joins two chain 2 copies via PYA triazoles

Target: CD137 on Jurkat reporter cells (Promega kit CS196005) (UniProt Q07011)
Sequence (Q07011 24-255 limits assumed): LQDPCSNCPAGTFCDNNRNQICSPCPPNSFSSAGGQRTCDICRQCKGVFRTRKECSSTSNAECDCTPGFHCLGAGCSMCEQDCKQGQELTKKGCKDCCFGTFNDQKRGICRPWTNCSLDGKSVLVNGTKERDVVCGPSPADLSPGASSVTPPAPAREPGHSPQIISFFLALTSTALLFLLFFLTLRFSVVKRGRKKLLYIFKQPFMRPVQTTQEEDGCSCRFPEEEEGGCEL
Experiment: cell-based or functional assay

Binder | Fold Improvement over BCY9173, EC50, PC3 | Fold Improvement over Emax (BCY9173), PC3
B1 | 4.16 fold | 1.89 fold
B2 | 2.3 fold | 1.8 fold
B3 | 3.15 fold | 1.88 fold
B4 | 0.1 fold | 0.7 fold
B5 | 2.2 fold | 1.8 fold
B6 | 2.05 fold | 1.91 fold
B7 | 1.1 fold | 1.9 fold
B8 | 4.74 fold | 2.08 fold
